Results on 16 molecules are retold here after patent US20220267440A1 (ABSOS, published 2022).

Test [1] deals with T1, human CD47 extracellular domain with a histidine- (HIS-) tag (Sino Biological, China) (human, UniProt Q08722 19-139).
T1 construct: extracellular domain; also called huCD47; huCD47 protein (Sino Biological, China 10161-H08H); not shown: histidine tag
Briefly: competition ELISA on huCD47 after 141A. (In an ELISA, binding on a coated surface is turned into a signal by an enzyme label.)

Test [2] concerns the target T1, human CD47 extracellular domain with a …. Put plainly: competition ELISA on huCD47 after 156A.
Experimental: (§1) A competition ELISA was performed to establish competitive binding bins. […] After washing, wells were incubated with an AlivaMab monoclonal antibody representing one of seven unique competition bins. After 1 hour the wells were washed and incubated with individual clonal anti-huCD47 AlivaMab hybridoma supernatants. […] Individual AlivaMab Mouse antibodies that were unable to bind in the presence of a mouse antibody are considered to be in the same epitope bin as that particular mouse antibody.
Test [3] shares this target. Put plainly: competition ELISA on huCD47 after 35A.
Experimental: as §1
The target is the same in test [4]. Put plainly: competition ELISA on huCD47 after 27A.
Experimental: as §1
Test [5] shares this target. Briefly: competition ELISA on huCD47 after 10A; cross-hatched cell.
Experimental: as §1
Test [6] deals with T2, recombinant CD47-Fc (Sino Biologics) (human, UniProt Q08722 19-139).
T2 construct: Bought reagent; also called human CD47-Fc; not shown: Fc
Briefly: competition ELISA: HIS-tagged SIRP α binding to plate-bound CD47-Fc, antibody titrated.

Test [7] has as its target T1, human CD47 extracellular domain with a …. Briefly: competition ELISA on huCD47 after 1A.
Experimental: as §1
Test [8] has the same target. Put plainly: competition ELISA on huCD47, row G1 Alone.
Experimental: as §1
Test [9] addresses T3, recombinant human CD47 (Novoprotein cat no. C321, lot no. 0329689) (human, UniProt Q08722 19-139).
T3 construct: Bought reagent
Put plainly: SPR (ProteOn XPR36), mAb captured on anti-mouse Fc, CD47 as analyte, 25 C, 1:1 model.
Experimental: (§2) Binding kinetics were measured at 25° C. using a BioRad ProteOn XPR36 optical biosensor equipped with GLM sensor chips and equilibrated with running buffer (HBS, 0.005% TWEEN-20, 0.1 mg/mL BSA, pH 7.4).
(§3) CD47 was tested in a three-fold dilution series starting at 100 nM.

The target in test [10] is T1, human CD47 extracellular domain with a …. Briefly: competition ELISA on huCD47 after 10A.
Experimental: as §1
Test [11] concerns the target T3, recombinant human CD47 (Novoprotein cat …). Briefly: SPR summary table, 25 C.
Experimental: as §2, §3

Changes are numbered by the printed parent chain.

B1: anti-CD47 AlivaMab antibody 161 (antibody, IgG1, V domains shown)
VH: QVQLQESGPGLVKPSETLSLTCTVSGGSISSYYWSWIRQPPGKGLEWIGYIYYSGSTNYNPSLKSRVTISVDTSKNQFSLKLSSVTAADTAVYYCARSRYFDLWGRGTLVTVSS
VL: DIQMTQSPSAMSTSVGDRVTITCRASQGISNFLAWFQQKPGKVPKRLIYAASSLQSGVPSRFSGSGSGTEFTLTISSLQPEDFATYYCLQHNSYPYTFGQGTKLEIK
notes: Chimeric AlivaMab Mouse mAb from hybridoma: human V, CH1 and upper hinge, mouse middle hinge, CH2 and CH3, human kappa light chain; also called clone 161; mAb 161
As a reminder, the IC50 is the midpoint of a concentration-inhibition curve. Take B1: the “competition matrix cell (no name or unit printed)” value in [1] was determined as 107; in [2], 112; in [3], 109; in [4] it was 105; in test [5] it was 89; in [7], 106. Moreover, the “competition matrix cell (no name or unit printed)” value in [8] was 100. Besides, in [6], the IC50 came out at 3 nM.

B2: anti-CD47 AlivaMab antibody 143 (antibody, IgG1, V domains shown)
VH: QVQLQESGPGLVKPSETLSLTCTVSGGSINNYYWSWIRQPPGKGLEWIGYIYYSGSTNYNPSLRSRVTISVDTSKNQFSLKLSSVAAADTAVYYCARQKGMDVWGQGTTVTVSS
VL: B1 VL with T13A, F32Y, Y96P, L104V
notes: Chimeric AlivaMab Mouse mAb from hybridoma: human V, CH1 and upper hinge, mouse middle hinge, CH2 and CH3, human kappa light chain; also called clone 143; mAb 143
With B2, the IC50 in [6] stood at 96 nM.

B3: anti-CD47 AlivaMab antibody 14 (antibody, IgG1, V domains shown)
VH: B1 VH with S98K, Y100G, F101L, L103I, R106Q, L109M
VL: not shown
notes: Chimeric AlivaMab Mouse mAb from hybridoma: human V, CH1 and upper hinge, mouse middle hinge, CH2 and CH3, human kappa light chain; also called clone 14; mAb 14
B3: the IC50 in test [6] was found to be 3.5 nM.

B4: anti-CD47 AlivaMab antibody 85 (antibody, IgG1, V domains shown)
VH: QVQLQESGPGLVKASETLSLTCTVSGGSISGYYWSWIRQPAGKGLEWIGRIYNSGSTNYNPSLKSRVTMSVDTSKNQFSLKLSSVTAADTAVYYCARQTYLDYWGQGTLVTVSS
VL: B1 VL with T13A, N31I, F32Y, Y96L, Q100G, L104V
notes: Chimeric AlivaMab Mouse mAb from hybridoma: human V, CH1 and upper hinge, mouse middle hinge, CH2 and CH3, human kappa light chain; also called clone 85; mAb 85
For B4, the “competition matrix cell (no name or unit printed)” value in [1] was 102; in test [2] it was 95; in [3], 104; in [4], 98; in [5], 83; in test [7] it was 98. In addition, the “competition matrix cell (no name or unit printed)” value in test [8] came out at 100. In [6], the IC50 was determined as 4.9 nM.

B5: anti-CD47 AlivaMab antibody 106 (antibody, IgG1, V domains shown)
VH: QVQLQGSGPGLVKPSETLSLTCTVSGGSINNYYWSWIRQPPGKGLEWIGYIYYSGSTNSNPSLKSRVTISVDTSKNQFSLKLNSVTAADTAVYYCARKRDAFDIWGQGTMVTVSS
VL: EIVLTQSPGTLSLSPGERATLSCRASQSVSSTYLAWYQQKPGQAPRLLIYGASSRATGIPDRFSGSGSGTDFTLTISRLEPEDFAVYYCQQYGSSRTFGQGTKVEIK
notes: Chimeric AlivaMab Mouse mAb from hybridoma: human V, CH1 and upper hinge, mouse middle hinge, CH2 and CH3, human kappa light chain
In the case of B5, the IC50 in test [6] is 2.9 nM.

B6: anti-CD47 AlivaMab antibody 107 (antibody, IgG1, V domains shown)
VH: QVQLQESGPGLMKPSETLSLTCTVSGGSISSYYWTWIRQPPGKGLEWIGYIYYSGSTNYNPSLKSRVTISVDTSKNQFSLKLSSVTAADTAVYYCARGRGALTAWGQGTLVTVSS
VL: DIQLTQSPSFLSASVGDRVTITCRASQDIGSYLAWCQQKPGKAPKLLIYAASTLQGGVPSRFSGSGSGTEFTLTISSLQPEDFATYYCQQLNSYPLTFGGGTKVEIK
notes: as for B5
For orientation: Kd means a measure of binding affinity in units of concentration. One may read the koff as the first-order rate constant of dissociation. In general, kon refers to a measure of how fast the partners come together. As to B6, the Kd in [9] came to 0.163 nM; in test [11] it was 0.16 nM. Moreover, the koff in test [9] and in test [11] was 0.00093 s⁻¹ in each case. The kon in test [9] and in [11] was 5.7e+06 M⁻¹ s⁻¹ in each case. The “competition matrix cell (no name or unit printed)” value in test [4] came to 106; in [5] it was 85; in test [10], 100; in [8], 100. The IC50 in test [6] turned out to be 2.7 nM.

B7: anti-CD47 AlivaMab antibody 101 (antibody, IgG1, V domains shown)
VH: B6 VH with M12V, S31F, Y50F
VL: not shown
notes: as for B5
As to B7, the “competition matrix cell (no name or unit printed)” value in test [5] worked out at 61; in test [10], 92; in test [8] it was 100. Further, in test [6], the IC50 worked out at 15 nM.

B8: anti-CD47 AlivaMab antibody 10 (antibody, IgG2a, V domains shown)
VH: B5 VH with G6E, N30R, N31T, S59Y, N83S, R99K, D100G
VL: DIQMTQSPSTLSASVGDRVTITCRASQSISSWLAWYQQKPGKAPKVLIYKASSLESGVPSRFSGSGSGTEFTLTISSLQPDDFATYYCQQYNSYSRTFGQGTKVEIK
notes: Chimeric AlivaMab Mouse mAb from hybridoma: human V, CH1 and upper hinge, mouse middle hinge, CH2 and CH3, human kappa light chain; also called clone 10; mAb 10
Take B8: the IC50 in test [6] is 4.7 nM.

B9: anti-CD47 AlivaMab antibody 87 (antibody, IgG1, V domains shown)
VH: B6 VH with M12V, T35S, S83N, G98K, G100A, A101F, T103D, A104Y
VL: DIQMTQSPSSLSASVGDRVTITCRASQGISNYLAWFQQKPGKAPKSLIYAASSLQGGVPSKFSGSGSGTDFTLTISSLQPEDFATYYCQQYNSYPLTFGGGTKVEIK
notes: Chimeric AlivaMab Mouse mAb from hybridoma: human V, CH1 and upper hinge, mouse middle hinge, CH2 and CH3, human kappa light chain; also called clone 87; mAb 87
On to B9, for which the IC50 in [6] was found to be 3 nM.

B10: anti-CD47 AlivaMab antibody 144 (antibody, IgG1, V domains shown)
VH: B6 VH with M12V, T35S, S56T, G98K, A101E, L102F, T103D, A104Y
VL: B9 VL with L11V, V15E, N31R, Y32W, F36Y, S46L, G56S, K61R, Y91A, Y94F
notes: Chimeric AlivaMab Mouse mAb from hybridoma: human V, CH1 and upper hinge, mouse middle hinge, CH2 and CH3, human kappa light chain; also called clone 144; mAb 144
As to B10, the IC50 in test [6] was 10 nM.

B11: anti-CD47 AlivaMab antibody 153 (antibody, IgG1, V domains shown)
VH: B5 VH with G6E, N31Y, S59Y, N83S, D100S, A101S, F102Y, I104Y, M110L
VL: B1 VL with T13A, F32Y, K45R, Y96W, L104V
notes: Chimeric AlivaMab Mouse mAb from hybridoma: human V, CH1 and upper hinge, mouse middle hinge, CH2 and CH3, human kappa light chain; also called clone 153; mAb 153
As to B11, the IC50 in test [6] was 27.9 nM.

B12: anti-CD47 AlivaMab antibody 164 (antibody, IgG1, V domains shown)
VH: B6 VH with M12V, T35S, I51V, S56G, G98K, A101T, L102F, T103D, A104Y
VL: B9 VL with L11V, N31S, Y32W, F36Y, S46L, G56S, K61R, Y87F, Y91A, Y94F
notes: Chimeric AlivaMab Mouse mAb from hybridoma: human V, CH1 and upper hinge, mouse middle hinge, CH2 and CH3, human kappa light chain; also called clone 164; mAb 164
In the case of B12, the “competition matrix cell (no name or unit printed)” value in [1] stood at 100; in test [2], 120; in test [3] it was 117; in test [4] it was 108; in test [10], 97; in test [7] it was 103. For the same molecule, in test [8], the “competition matrix cell (no name or unit printed)” value came out at 100. In addition, in test [6], the IC50 came out at 4.8 nM.

B13: anti-CD47 AlivaMab antibody 91 (antibody, IgG1, V domains shown)
VH: B5 VH with G6E, N30S, N31T, S56T, S59Y, N83S
VL: EIVLTQSPGTLSLSPGERATLSCRASQSVSSTYLAWSQQKPGQAPRLLIYGASSRATGIPDRFSGSGSGTDFTLTISRLEPEDFAVYYCQQYGSSRTFGQGTKVEIK
notes: Chimeric AlivaMab Mouse mAb from hybridoma: human V, CH1 and upper hinge, mouse middle hinge, CH2 and CH3, human kappa light chain; also called clone 91; mAb 91
B13: in [9], the Kd was 0.154 nM, the koff was found to be 0.00111 s⁻¹ and the kon turned out to be 7.2e+06 M⁻¹ s⁻¹. Besides, in test [6], the IC50 is 2.1 nM. Also, in test [11], the Kd came to 0.15 nM, the koff was 0.00111 s⁻¹ and the kon worked out at 7.2e+06 M⁻¹ s⁻¹.

B14: anti-CD47 AlivaMab antibody 90 (antibody, IgG1, V domains shown)
VH: B6 VH with M12V, S30N, S31N, T35S, N60H, S83T, Y93F, G100R
VL: B6 VL with L4V, D28G, G30S, C36Y, G56S, V104M
notes: Chimeric AlivaMab Mouse mAb from hybridoma: human V, CH1 and upper hinge, mouse middle hinge, CH2 and CH3, human kappa light chain; also called clone 90; mAb 90
In the case of B14, the IC50 in test [6] was 53.6 nM.

B15: anti-CD47 AlivaMab antibody 5 (antibody, IgG1, V domains shown)
VH: B6 VH with M12V, T35S, R99K, A101G, L102T, T103D, A104Y
VL: DIQMTQSPSSVSASVGDRVTITCRASQGISSWLAWYQQKPGKAPKLLIYAASSLQSGVPSRFSGSGSGTDFTLTISSLQPEDFATYYCQQANSFPRTFGQGTKVEIK
notes: Chimeric AlivaMab Mouse mAb from hybridoma: human V, CH1 and upper hinge, mouse middle hinge, CH2 and CH3, human kappa light chain; also called clone 5; mAb 5
Take B15: the entries for the “competition matrix cell (no name or unit printed)” value in test [3], in test [5] and in [10] were 97, 73 and 93, respectively. For the same molecule, the IC50 in test [6] came out at 3.5 nM.

B16: anti-CD47 AlivaMab antibody 102 (antibody, IgG1, V domains shown)
VH: B5 VH with G6E, N30S, S59Y, N83S, A101T
VL: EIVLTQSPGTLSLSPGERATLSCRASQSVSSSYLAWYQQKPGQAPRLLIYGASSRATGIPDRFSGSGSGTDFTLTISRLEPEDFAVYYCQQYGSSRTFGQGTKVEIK
notes: as for B5
Regarding B16, in test [9], the Kd is 0.32 nM, the koff came out at 0.00221 s⁻¹ and the kon amounted to 6.9e+06 M⁻¹ s⁻¹. Further, the IC50 in [6] came out at 2.3 nM. Also, in [11], the Kd was determined as 0.32 nM, the koff was determined as 0.00221 s⁻¹ and the kon was 6.9e+06 M⁻¹ s⁻¹.
